These results are taken from patent US20200157212A1 (Pfizer, published 2020).

Sequences and labels used below:
B1: CTIR2-1 (antibody, human IgG1, kappa, V domains shown)
VH: EVQLVQSGAEVKKPGASVKVSCKASGYTFTGYYMHWVRQAPGQGLEWMGWINPRSGATNFPQKFQGRVTMTRDTSITTAYMDLSRLRSDDTAVYYCARESGDDAFDIWGQGTMVTVSS
VL: DIVMTQSPSSLSASVGDRVTITCRASQSISSYLNWYQQKPGKAPKLLIYAASSLQYGVPSRFSGSGSGTDFTLTISSLQPEDFATYYCQQSLELGFGGGTKVEIKR
notes: CDR-shuffled IgG
B2: CTIR2-4 (antibody, human IgG1, kappa, V domains shown)
VH: B1 VH with R54K
VL: B1 VL with S28K, L92Y, E93S, L94T, G95S
notes: CDR-shuffled IgG
B3: CTIR2-5 (antibody, human IgG1, kappa, V domains shown)
VH: B1 VH with R54K
VL: B1 VL with S28K, Y56S
notes: CDR-shuffled IgG
B4: CTIR2-2 (antibody, human IgG1, kappa, V domains shown)
VH: B1 VH
VL: B1 VL with L92V, E93G, G95S
notes: CDR-shuffled IgG
B5: CTIR2-8 (antibody, human IgG1, kappa, V domains shown)
VH: B1 VH with R54K
VL: B1 VL with S28K, L92V, E93G, G95S
notes: CDR-shuffled IgG
B6: CTIR2-12 (antibody, human IgG1, kappa, V domains shown)
VH: B1 VH with T30R, Y33A, N52D, S55T, A57L, N59K
VL: B1 VL with S28K, Y56S, L92Y, E93S, L94T, G95S
notes: CDR-shuffled IgG
B7: CTIR2-11 (antibody, human IgG1, kappa, V domains shown)
VH: B1 VH with T30R, Y33A, N52D, S55T, A57L, N59K
VL: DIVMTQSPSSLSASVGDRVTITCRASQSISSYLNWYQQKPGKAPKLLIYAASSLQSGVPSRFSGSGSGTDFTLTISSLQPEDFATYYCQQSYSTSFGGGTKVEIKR
notes: CDR-shuffled IgG
B8: CTIR2-3 (antibody, human IgG1, kappa, V domains shown)
VH: B1 VH
VL: B1 VL with L92V, E93G, G95F
notes: CDR-shuffled IgG
B9: CTIR2-7 (antibody, human IgG1, kappa, V domains shown)
VH: B1 VH with R54K
VL: B1 VL with S28K
notes: CDR-shuffled IgG

Changes are numbered by the printed parent chain.

The first assay deals with T1, Terbium (Tb) labeled-SNAP tagged ROBO2 expressed on HEK293 cells (Homo sapiens (Human), UniProt Q9HCK4 22-1378, terbium label on the SNAP tag).
T1 construct: also called Tb-labeled ROBO2 cells; ROBO2 expressing cells; not shown: SNAP tag
T1 sequence: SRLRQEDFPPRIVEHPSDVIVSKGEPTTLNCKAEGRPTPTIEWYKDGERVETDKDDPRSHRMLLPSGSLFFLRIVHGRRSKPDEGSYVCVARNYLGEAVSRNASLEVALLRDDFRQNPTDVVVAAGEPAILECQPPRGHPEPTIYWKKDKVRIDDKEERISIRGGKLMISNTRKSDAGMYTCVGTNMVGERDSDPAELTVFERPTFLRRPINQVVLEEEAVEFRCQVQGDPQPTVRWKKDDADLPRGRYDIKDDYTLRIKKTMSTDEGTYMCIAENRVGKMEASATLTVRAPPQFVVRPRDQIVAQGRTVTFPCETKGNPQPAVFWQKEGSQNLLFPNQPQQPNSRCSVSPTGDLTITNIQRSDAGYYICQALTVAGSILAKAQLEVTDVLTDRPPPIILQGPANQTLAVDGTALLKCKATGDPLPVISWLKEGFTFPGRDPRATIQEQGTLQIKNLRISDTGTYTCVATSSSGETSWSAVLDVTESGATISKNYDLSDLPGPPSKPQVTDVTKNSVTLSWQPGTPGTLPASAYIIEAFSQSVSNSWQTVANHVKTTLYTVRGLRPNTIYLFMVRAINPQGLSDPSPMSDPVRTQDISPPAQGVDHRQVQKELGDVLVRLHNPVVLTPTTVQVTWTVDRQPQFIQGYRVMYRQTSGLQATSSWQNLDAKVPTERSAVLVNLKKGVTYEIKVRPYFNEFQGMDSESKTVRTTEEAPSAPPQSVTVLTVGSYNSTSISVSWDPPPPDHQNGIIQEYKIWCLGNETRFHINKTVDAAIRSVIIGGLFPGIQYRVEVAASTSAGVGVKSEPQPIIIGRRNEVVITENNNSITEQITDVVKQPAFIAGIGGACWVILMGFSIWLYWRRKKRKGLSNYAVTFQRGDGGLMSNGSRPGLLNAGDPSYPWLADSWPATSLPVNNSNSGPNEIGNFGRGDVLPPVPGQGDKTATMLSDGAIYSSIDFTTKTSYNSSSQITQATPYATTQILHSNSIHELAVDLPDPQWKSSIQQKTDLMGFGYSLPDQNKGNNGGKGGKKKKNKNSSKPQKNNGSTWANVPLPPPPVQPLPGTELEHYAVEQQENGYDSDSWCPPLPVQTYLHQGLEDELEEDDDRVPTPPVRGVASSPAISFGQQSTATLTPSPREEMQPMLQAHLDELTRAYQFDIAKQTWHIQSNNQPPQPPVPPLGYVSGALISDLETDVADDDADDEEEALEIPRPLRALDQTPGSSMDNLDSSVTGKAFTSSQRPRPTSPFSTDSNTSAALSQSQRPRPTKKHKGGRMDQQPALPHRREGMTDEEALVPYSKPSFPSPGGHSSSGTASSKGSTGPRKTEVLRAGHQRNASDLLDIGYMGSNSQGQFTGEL
Put plainly: HTRF competition, competitor d2-SLIT2-N, ROBO2 HEK293 cells. As to the method: (§1) Antibodies generated as a result of the affinity maturation campaign were screened by numerous assays for neutralization of SLIT2-N binding, selective binding to ROBO2 over ROBO1, and inhibition of SLIT2-N functional activity (see Table 2). A ROBO2-SLIT2-N homogenous time resolved fluorescence (HTRF) assay was used to identify antibodies that were capable of blocking SLIT2-N binding to ROBO2. In this assay, terbium (Tb) labeled-SNAP tagged ROBO2 expressing HEK293 cells were incubated with 5 nM d2-labeled SLIT-2N in the presence of 1 nM anti-ROBO2 antibodies for 1 hour. After incubation, fluorescence at 665 nm and 620 nm was measured on an Envision multilabel plate reader. […] Maximal signal was defined as the HTRF ratio of Tb-labeled ROBO2 cells with d2-labeled SLIT2-N in the absence of antibody, the minimum signal was defined as the HTRF ratio of Tb-labeled ROBO2 expressing HEK293 cells only. One nanomolar (nM) parental antibody, 93H2, was unable to block the HTRF assay, therefore this concentration was selected to identify clones with a higher affinity than 93H2 (Table 2, HTRF Ratio column). […] Antibodies derived from chain (Abcs series) or CDR shuffling (CTIR-2 series) were evaluated in 11-point, 5-fold dilution series with a top concentration of 1500 nM (Table 2 HTRF IC₅₀).
In turn, B1 showed a 50% inhibitory concentration (IC50) of 0.159 nM.

Regarding B2, the IC50 came out at 0.38 nM.

B3 displayed an IC50 of 0.165 nM.

Molecule B4 came in with an IC50 of 0.109 nM.

Take B5: the IC50 was found to be 0.108 nM. The IC50 values of the last two molecules are within 1.5-fold of each other.

B6 displayed an IC50 of 0.076 nM.

B7 displayed an IC50 of 0.182 nM.

Regarding B8, the IC50 is 0.154 nM.

The molecule B9 gave a concentration for half-maximal inhibition (IC50) of 0.136 nM.

The target in the next assay is T1, Terbium (Tb) labeled-SNAP tagged ROBO2 …. Kind of assay: HTRF, 5 nM d2-SLIT2-N on Tb-SNAP-ROBO2 HEK293 cells, 1 nM antibody. As to the method:
as §1, with “In” for “Antibodies generated as a result of the affinity maturation campaign were screened by numerous assays for neutralization of SLIT2-N binding, selective binding to ROBO2 over ROBO1, and inhibition of SLIT2-N functional activity (see Table 2). A ROBO2-SLIT2-N homogenous time resolved fluorescence (HTRF) assay was used to identify antibodies that were capable of blocking SLIT2-N binding to ROBO2. In”
HTRF assays were run with 5 nM d2-labeled SLIT2-N and antibodies were added at 1 nM. […] Antibodies derived from chain (Abcs series) or CDR shuffling (CTIR-2 series) were evaluated in 11-point, 5-fold dilution series with a top concentration of 1500 nM, N.T. = not tested; ^cFold selectivity was calculated as Geometric Mean Fluorescent Intensity (Geo MFI) of ROBO2/Geo MFI of ROBO1 binding.
On to B1, for which the “HTRF Ratio” value came out at 4540.

As to B2, the “HTRF Ratio” value came out at 6170.

Take B3: the “HTRF Ratio” value was found to be 5180.

With B4, the “HTRF Ratio” value turned out to be 4330.

With B5, the “HTRF Ratio” value is 3860.

On to B6, for which the “HTRF Ratio” value is 4580.

Consider B7, for which the “HTRF Ratio” value was 4780.

Consider B8, for which the “HTRF Ratio” value came to 4050.

B9: the “HTRF Ratio” value worked out at 3670.

By IC50 is commonly meant the concentration needed to halve the response being measured. Read a low IC50 as greater potency.
